Test results: PMC10824877, “Assessment of bioactive peptides derived from laminin-111 as prospective breast cancer-targeting agents” (Amino Acids, 2024)
Entries after “also recorded” stand apart in the source; their conditions may differ. No end group written: not given here. *: point of attachment. 131I = iodine-131 radiolabel on tyrosine, [131I]*

Columns and labels:
[1] = Radiochemical stability in serum; assay type: in vitro ADME; details: 37 °C, up to 24 h
Experimental: (§1) The radiochemical stability of the radiopeptides was evaluated in two distinct environments: in saline (n = 3), at room temperature and under refrigeration (4–8 °C), by a period of 48 h after the radiolabeling, and in serum (n = 5), at 37 °C, for up to 24 h after incubation. At predefined time intervals, aliquots were extracted and subjected to ascending chromatography, as previously detailed.

[2] = Radiochemical stability in saline; assay type: physicochemical
Experimental: as §1

Substance: [^131I]I-KAFDITYVRLKF: laminin-111 γ1 chain C16 peptide KAFDITYVRLKF radiolabeled with iodine-131 at the central tyrosine residue (KAFDITY(131I)VRLKF)
- radiochemical stability in serum [1]: unstable; also recorded: radiochemical instability within the first hour
- decrease of radiochemical purity ([2]; after 24 h, room temperature or under refrigeration): approximately 50%
- radiochemical purity remaining ([2]; both storage conditions, within the specified time interval): around 50%
